Patent publication US7507555B2, “Probe for detecting and quantifying lipid second messenger and method of detecting and quantifying lipid second messenger using the same” (Japan Science and Technology Agency, priority 2003, dated 2009)

How the values were obtained:
[1] = test system: clathrin-mediated endocytosis of PDGFR; assay: Effect of DynK44A expression on PIP3 increase in CHO-PDGFR cells; format: cell-based, Chinese hamster
Experimental: To explore the molecular mechanism, which underlies the PIP3 increase in the endomembranes, the effect on the PIP3 increase of a dominant-negative mutant of dynamin (DynK44A), in which the lysine 44 is substituted by an alanine, was assessed.
The dynamin is a guanosine triphosphatase (GTPase) that controls the clathrin-mediated endocytosis (Qualmann, B., Kessels, M. M. and Kelly, R. B. (2000) J. Cell Biol., 150, F111-F116) of receptor tyrosine kinases, including PDGFR. DynK44A lacks the GTPase activity and inhibits a clathrin-mediated endocytosis of PDGFR.
The DynK44A was expressed in CHO-PDCFR cells by adenovirus-mediated gene transfer, the cells were stimulated with PDGF (50 ng/mL) and time course of CFP/YFP in endomembranes was measured as shown in FIG. 11. […] On the other hand, in the plasma membrane, the FRET response of Fllip-pm was immediately observed upon PDGF stimulation even in the presence of the DynK44A expression, as observed in the absence of the DynK44A expression (FIG. 12).

[2] = test system: PDGFR; assay: Effect of PTP1B overexpression on PDGF-stimulated PIP3 increase in CHO-PDGFR cells; format: cell-based, Chinese hamster; details: PTP1B overexpressed
From the text: For further dissecting the PIP3 dynamics in the endomembranes, protein tyrosine phosphatase-1B (PTP1B) was overexpressed in CHO-PDGFR cells by adenovirus-mediated gene transfer. The PTP1B is localized exclusively on the cytoplasmic surface of the ER (Frangioni, J. V., Beaham, P. H., Shifrin, V., Jost, C. A. and Neel, B. G. (1992) Cell, 68, 545-560). It has recently been reported that upon ligand stimulations, receptor tyrosine kinases, including PDGFR, are dephosphorylated and inactivated by the PTP1B on the cytoplasmic surface of the ER after the receptors activated at the cell surface were internalized by endocytosis (Haj, F. G., Verveer, P. J., Squire, A., Neel, B. G. and Bastiaens, P. I. H. (2002), Science, 295, 1708-1711).
The inventors expected the overexpressed PTP1B to selectively dephosphorylate the endocytosed PDGFR and to inhibit the recruitment and activation of PI3K by the PDGFR on the cytoplasmic surface of ER, without affecting the PDCFR in the plasma membrane.

Molecule | PIP3 increase in the endomembranes by insulin and epidermal growth factor ([1]; DynK44A overexpression) | PDGF-stimulated PIP3 increase in the endomembranes ([1]; overexpression of DynK44A, PDGF 50 ng/mL) | PDGF-stimulated PIP3 increase in the plasma membrane ([1]; overexpression of DynK44A, PDGF 50 ng/mL, Fllip-pm) | PDGF-stimulated PIP3 increase in endomembranes ([2]; Fllip-em, PDGF 50 ng/mL) | PIP3 increase in the plasma membrane upon PDGF stimulation ([2]; monitored with Fllip-pm)
DynK44A: dominant-negative mutant of dynamin in which the lysine 44 is substituted by an alanine (protein, UniProt Q05193 1-864, looked up, variant K44A) Dynamin-1: MGNRGMEDLIPLVNRLQDAFSAIGQNADLDLPQIAVVGGQSAGASSVLENFVGRDFLPRGSGIVTRRPLVLQLVNATTEYAEFLHCKGKKFTDFEEVRLEIEAETDRVTGTNKGISPVPINLRVYSPHVLNLTLVDLPGMTKVPVGDQPPDIEFQIRDMLMQFVTKENCLILAVSPANSDLANSDALKVAKEVDPQGQRTIGVITKLDLMDEGTDARDVLENKLLPLRRGYIGVVNRSQKDIDGKKDITAALAAERKFFLSHPSYRHLADRMGTPYLQKVLNQQLTNHIRDTLPGLRNKLQSQLLSIEKEVEEYKNFRPDDPARKTKALLQMVQQFAVDFEKRIEGSGDQIDTYELSGGARINRIFHERFPFELVKMEFDEKELRREISYAIKNIHGIRTGLFTPDMAFETIVKKQVKKIREPCLKCVDMVISELISTVRQCTKKLQQYPRLREEMERIVTTHIREREGRTKEQVMLLIDIELAYMNTNHEDFIGFANAQQRSNQMNKKKTSGNQDEILVIRKGWLTINNIGIMKGGSKEYWFVLTAENLSWYKDDEEKEKKYMLSVDNLKLRDVEKGFMSSKHIFALFNTEQRNVYKDYRQLELACETQEEVDSWKASFLRAGVYPERVGDKEKASETEENGSDSFMHSMDPQLERQVETIRNLVDSYMAIVNKTVRDLMPKTIMHLMINNTKEFIFSELLANLYSCGDQNTLMEESAEQAQRRDEMLRMYHALKEALSIIGDINTTTVSTPMPPPVDDSWLQVQSVPAGRRSPTSSPTPQRRAPAVPPARPGSRGPAPGPPPAGSALGGAPPVPSRPGASPDPFGPPPQVPSRPNRAPPGVPSRSGQASPSRPESPRPPFDL | inhibited | completely inhibited | not affected | – | –
PTP1B: protein tyrosine phosphatase-1B, overexpressed by adenovirus-mediated gene transfer (protein, UniProt P18031 1-435, looked up) Tyrosine-protein phosphatase …: MEMEKEFEQIDKSGSWAAIYQDIRHEASDFPCRVAKLPKNKNRNRYRDVSPFDHSRIKLHQEDNDYINASLIKMEEAQRSYILTQGPLPNTCGHFWEMVWEQKSRGVVMLNRVMEKGSLKCAQYWPQKEEKEMIFEDTNLKLTLISEDIKSYYTVRQLELENLTTQETREILHFHYTTWPDFGVPESPASFLNFLFKVRESGSLSPEHGPVVVHCSAGIGRSGTFCLADTCLLLMDKRKDPSSVDIKKVLLEMRKFRMGLIQTADQLRFSYLAVIEGAKFIMGDSSVQDQWKELSHEDLEPPPEHIPPPPRPPKRILEPHNGKCREFFPNHQWVKEETQEDKDCPIKEEKGSPLNAAPYGIESMSQDTEVRSRVVGGSLRGAQAASPAKGEPSLPEKDEDHALSYWKPFLVNMCVATVLTAGAYLCYRFLFNSNT | – | – | – | completely lost | not affected
